The values that follow come from publication PMC12263440.

For this assay, the target named is nucleosome containing the 193-bp Widom 601 DNA (24-bp linker DNAs at both ends) (human) (UniProt P04908). The experiment in a line: mass photometry; 193-bp 601 nucleosome (1 µM) and DEK (2 µM) in 18 mM Tris-HCl pH 7.5, 60 mM NaCl, overnight at room temperature; diluted 1:40 for recording.

Values joined by “and” are separate entries in the source; they are usually repeats but may differ in a detail not shown here. Identical values can stand only once.

As for “recombinant human DEK protein (wild type) (from UniProt P35659 1-375) (natural protein)”, the stoichiometry N (DEK molecules per nucleosome) is 1 and 2.
